Legend:
rat PTHR = target: T1, rat PTHR (Rattus norvegicus, UniProt P25961); experiment: u-PA secretion bioassay in LLC-PK1 cells expressing rat PTHR; format: cell-based
T1 construct: expressed in transfected cells; host or cells: LLC-PK1 porcine renal epithelial cells (EW5; also EW29, AR-C38, AR-B44)
T1 sequence (P25961 27-591): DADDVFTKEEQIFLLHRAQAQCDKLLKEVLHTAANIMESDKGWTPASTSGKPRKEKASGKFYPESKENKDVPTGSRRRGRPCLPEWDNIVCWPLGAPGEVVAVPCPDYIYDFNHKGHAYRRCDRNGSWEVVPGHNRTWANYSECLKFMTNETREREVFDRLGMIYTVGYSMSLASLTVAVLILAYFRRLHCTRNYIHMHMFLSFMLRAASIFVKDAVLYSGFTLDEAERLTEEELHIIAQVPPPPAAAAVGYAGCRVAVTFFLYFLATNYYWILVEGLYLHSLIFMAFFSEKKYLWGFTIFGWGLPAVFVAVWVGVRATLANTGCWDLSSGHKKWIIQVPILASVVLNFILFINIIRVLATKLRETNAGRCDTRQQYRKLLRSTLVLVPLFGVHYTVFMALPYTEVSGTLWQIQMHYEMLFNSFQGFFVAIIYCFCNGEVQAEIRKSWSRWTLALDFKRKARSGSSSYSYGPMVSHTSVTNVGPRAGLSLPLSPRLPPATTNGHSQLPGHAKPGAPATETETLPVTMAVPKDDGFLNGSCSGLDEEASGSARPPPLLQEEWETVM

human PTH/PTHrP receptor [1] = target: T2, human PTH/PTHrP receptor (Homo sapiens, UniProt Q03431); experiment: Cellular cAMP accumulation in LLC-PK1 cells expressing human PTHR; format: cell-based; parameters: transfected with a full-length human PTH/PTHrP receptor cDNA; expressed in transfected cells; settings: HKRK B28 cells; similar in HKRK B7
T2 sequence (Q03431 27-593): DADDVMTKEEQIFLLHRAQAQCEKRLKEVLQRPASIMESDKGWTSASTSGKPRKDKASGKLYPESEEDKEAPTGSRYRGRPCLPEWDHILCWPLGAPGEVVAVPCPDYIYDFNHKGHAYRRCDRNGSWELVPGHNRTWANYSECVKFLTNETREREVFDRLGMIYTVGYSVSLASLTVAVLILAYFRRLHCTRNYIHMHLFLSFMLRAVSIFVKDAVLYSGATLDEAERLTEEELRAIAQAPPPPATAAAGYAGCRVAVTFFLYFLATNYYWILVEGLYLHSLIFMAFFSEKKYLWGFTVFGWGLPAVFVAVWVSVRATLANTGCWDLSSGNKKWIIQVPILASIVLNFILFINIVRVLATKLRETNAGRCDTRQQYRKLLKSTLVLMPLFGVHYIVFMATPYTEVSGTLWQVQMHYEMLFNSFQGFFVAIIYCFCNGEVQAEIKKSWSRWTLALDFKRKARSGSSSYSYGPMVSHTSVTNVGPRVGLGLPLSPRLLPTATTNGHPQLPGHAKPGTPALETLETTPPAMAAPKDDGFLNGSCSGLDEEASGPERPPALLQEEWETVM
Experimental: Cells were seeded into 24-well plates at a density of 2.5×10^5 cells/well and cultured for a further 2 days before study. The cells were rinsed once with 0.5 ml of ice-cold Buffer B [10 mM HEPES (pH 7.4), 130 mM NaCl, 5 mM KCl, 1.2 mM CaCl2, 1 mM MgCl2, 1.2 mM Na2HPO^4 5 mM glucose, and 0.1% heat-inactivated BSA] supplemented with 1 mM isobtylmethylxanthine (IBMX), and placed on ice. Treatments were added to each well in 0.25 ml of IBMX-supplemented Buffer B, after which the plates were incubated at 37° C. for 15 min. The buffer then was rapidly aspirated, the plates were rapidly transferred onto liquid nitrogen, and the frozen monolayers were subsequently thawed directly into 0.5 ml of 50 mM HCl. The extracted cAMP then was measured using a commercial RIA kit (Dupont-New England Nuclear, Boston, Mass.). Results were expressed as fold-basal, where basal levels ranged between 38 and 128 pmol/mg protein/15 min. The basal level of cAMP accumulation in native LLC-PK1 cells was not consistently altered in subclones that expressed wild type PTH/PTHrp receptors.
Maximal PTH-dependent cAMP accumulation was assessed in the human PTHR-transfected LLC-PK1 subclones following incubation for 15 min with a high concentration (1000 nM) of hPTH(1-34) (Table 1). As reported previously for LLC-PK1 cells that stably expressed rat PTHRs (Guo, J., et al., Endocrinology 136:3884-3891 (1995)), the maximal adenylyl cyclase response was relatively independent of the surface density of human PTHRs above a relatively low threshold (relative to that required for PLC activation—see below). In the case of the human PTHR, however, this threshold for saturation of maximal AC activation appeared to lie between 120,000 and 280,000 (Table 1), which is at least 6 to 10-fold higher than that previously observed for the rat PTHR (Guo, J., et al., Endocrinology 136:3884-3891 (1995)).

human PTH/PTHrP receptor [2] = target: T2, human PTH/PTHrP receptor; experiment: Urokinase-type plasminogen activator (u-PA) secretion bioassay in LLC-PK1 cells expressing human PTHR; settings: for secreted u-PA: peptide 1000 nM, 16 hr, mean±SEM
Experimental: Cells were seeded into 96-well plates at a density of 6×10^4 cells/well and used the following day. The cells were washed once with 0.2 ml and then refed with 0.1 ml of prewarmed DMEM containing 0.05% BSA. After adding each stimulator, plates were returned to the incubator at 37° C. for 16 h. Conditioned medium (5 ul) then was transferred from each well to a clean microplate. […] Activity was expressed in Ploug units/well, using purified human urokinase (Calbiochem) as a standard.
Cells were incubated with the indicated peptides (1000 nM) for 16 hr before measurement of secreted u-PA present in the medium, which was expressed as a percentage of the activity measured in vehicle-treated controls. Values shown are means±SEM of triplicate determinations.

u-PA Activity (rat PTHR; EW5 cells, 320,000 rat PTHRs per cell, peptide 1000 nM, mean±SEM): 41.2 ± 1.2 units/well
u-PA production at 16 hr (in words) (rat PTHR; EW5 cells, 100 nM of either peptide): identical
u-PA bioassay activity (in words) (human PTH/PTHrP receptor [2]; HKRK B7 and HKRK B28 cells): fully active
maximal activation of u-PA secretion compared with hPTH(1-34) (human PTH/PTHrP receptor [2]; HKRK B7 cells and AB45 cells): identical to that of hPTH(1-34)
Substance: hPTH(1-31)
activation of AC (in words) (human PTH/PTHrP receptor [1]): indistinguishable from that to hPTH(1-34)
secreted u-PA (human PTH/PTHrP receptor [2]; HKRK B7 cells): 101 ± 9 percentage of the activity measured in vehicle-treated controls
secreted u-PA (human PTH/PTHrP receptor [2]; HKRK B28 cells): 101 ± 6 percentage of the activity measured in vehicle-treated controls
